Where two headings read alike, the source gives them in different places.

Test [1] addresses polymerized microtubules. Nature of the test: single-molecule TIRF microscopy motility assay.
Test [2] addresses polymerized microtubules. In words: single-molecule TIRF microscopy motility assay. This is another data set of the same source.

For the substance “full-length human KIF1A fused to a C-terminal mScarlet-strepII tag (from UniProt Q12756 1-1690) (natural protein)”, the landing rate (molecules bound to microtubules per length and time) was 0.002 /μm/sec with polymerized microtubules [1] and 0.012 /μm/sec with polymerized microtubules [2]. Turning to “full-length human KIF1A(A255V) fused to a C-terminal mScarlet-strepII tag (from UniProt Q12756 1-1690) (natural protein)”, in the test with polymerized microtubules [1], the landing rate (molecules bound to microtubules per length and time) is 0.024 /μm/sec. Same read-out and setting: as for “full-length human KIF1A(R350G) fused to a C-terminal mScarlet-strepII tag (from UniProt Q12756 1-1690) (natural protein)”, the figure is 0.025 /μm/sec; as for “full-length human KIF1A(V8M) fused to a C-terminal mScarlet-strepII tag (from UniProt Q12756 1-1690) (natural protein)”, 0.039 /μm/sec.
